Earlier results as cited in patent US7276335B1, “Designing compounds specifically inhibiting ribonucleic acid function” (Massachusetts Institute of Technology, priority 1993, dated 2007).

Assays:
[1] = system: eukaryotic 28 S rRNA; details: cleaves one phosphodiester bond on the 3′ side of G-4325
[2] = system: normal cells as well as tumor cells; details: too toxic for use clinically to treat tumors
[3] = system: sarcoma

B1: α-sarcin: cytotoxic protein with potent antisarcoma activity, isolated from a mold, that inactivates ribosomes by cleaving the rRNA (protein, UniProt P00655 28-177, looked up)
Ribonuclease alpha-sarcin: AVTWTCLNDQKNPKTNKYETKRLLYNQNKAESNSHHAPLSDGKTGSSYPHWFTNGYDGDGKLPKGRTPIKFGKSDCDRPPKHSKDGNGKTDHYLLEFPTFPDGHDYKFDSKKPKENPGPARVIYTYPNKVFCGIIAHTKENQGELKLCSH
In the case of B1, the “inactivation of ribosomes by rRNA cleavage” value [1] is given as “inactivates ribosomes by cleaving the rRNA”, the toxicity to cells [2] is given as “highly toxic to normal cells as well as tumor cells” and the antisarcoma activity [3] is given as “potent antisarcoma activity”.
